Laboratory results as given in the supplement of paper PMC10201428.
± gives the standard deviation of the averaged measurements.

How the values were obtained:
[1] = tested on: VchCAST RNA-guided transposition machinery (E. coli BL21(DE3) host, lacZ target); experiment: relative integration efficiency (T-RL orientation) vs wild-type transposon end (log2 (normalized fold change)); transposon end mutated: right end (5 bp flank + 75 bp right end); higher = more efficient transposition
How it was run: (§1)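 Barcode abundances in input plasmids and in genomic integration junctions were obtained by PCR amplification and Illumina sequencing. These came from E. coli BL21(DE3) co-transformed with a T7-driven effector plasmid and a pUC57 donor carrying 1549 left-end or 1849 right-end transposon variants, then plated with 0.1 mM IPTG at 37°C for 18 h. Relative integration efficiency is the output/input fold change, normalised to reference barcodes and log-transformed.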

[2] = tested on: VchCAST RNA-guided transposition machinery (E. coli BL21(DE3) host, lacZ target); experiment: relative integration efficiency (T-LR orientation) vs wild-type transposon end (log2 (normalized fold change)); transposon end mutated: right end (5 bp flank + 75 bp right end); higher = more efficient transposition
How it was run: as §1

ACATTTGTTGATACAACCATAAAATGATAATTACAACCATAAAGTGATATTTATCACAACCATAAAATGATAATTACTCTGATCATAGTCAGACCAACATTGCTACGACCCGTATTCGCACCGACAC
relative integration efficiency (log2) [1]: -0.258 ± 0.14 | relative integration efficiency (log2) [2]: -0.0691 ± 0.38

ACATTTGTTGATACAACCATAAAATGATAATTACAACCATAAAGTGATATTTATCACAACCATAAAGTGATATTTACTCTGATCATAGTCAGACCAACATTGCTACGACCCGTATTCGCACCGACAC
relative integration efficiency (log2) [1]: 0.0131 ± 0.077 | relative integration efficiency (log2) [2]: -0.228 ± 0.22

ACATTTGTTGATACAACCATAAAATGATAATTACAACCATAAAGTGATATTTATCACAACCATAAGTTGATATTTTCTCTGATCATAGTCAGACCAACATTGCTACGACCCGTATTCGCACCGACAC
relative integration efficiency (log2) [1]: -0.0894 ± 0.09 | relative integration efficiency (log2) [2]: -0.251 ± 0.14

ACATTTGTTGATACAACCATAAAATGATAATTACAACCATAAAGTGATATTTATCACAACCATATATTGATATCTCCTCTGATCATAGTCAGACCAACATTGCTACGACCCGTATTCGCACCGACAC
relative integration efficiency (log2) [1]: -0.331 ± 0.17 | relative integration efficiency (log2) [2]: -0.276 ± 0.022

ACATTTGTTGATACAACCATAAAATGATAATTACAACCATAAAGTGATATTTATCACACCCATAAATTGATAATTACTCTGATCATAGTCAGACCAACATTGCTACGACCCGTATTCGCACCGACAC
relative integration efficiency (log2) [1]: 0.00575 ± 0.15 | relative integration efficiency (log2) [2]: -0.0135 ± 0.3

ACATTTGTTGATACAACCATAAAATGATAATTACAACCATAAAGTGATATTTATCACACCCATAAATTGATATTGCCTCTGATCATAGTCAGACCAACATTGCTACGACCCGTATTCGCACCGACAC
relative integration efficiency (log2) [1]: -0.128 ± 0.23 | relative integration efficiency (log2) [2]: -0.0327 ± 0.15

ACATTTGTTGATACAACCATAAAATGATAATTACAACCATAAAGTGATATTTATCAGTGGGTATTTAACTATAACGCTCTGATCATAGTCAGACCAACATTGCTACGACCCGTATTCGCACCGACAC
relative integration efficiency (log2) [1]: -0.586 ± 0.2 | relative integration efficiency (log2) [2]: 2.5 ± 0.1

ACATTTGTTGATACAACCATAAAATGATAATTACAACCATAAGTTGATATTTTTCACAACCATAAAATGATAATTACTCTGATCATAGTCAGACCAACATTGCTACGACCCGTATTCGCACCGACAC
relative integration efficiency (log2) [1]: -0.308 ± 0.21 | relative integration efficiency (log2) [2]: -0.0321 ± 0.022

ACATTTGTTGATACAACCATAAAATGATAATTACAACCATAAGTTGATATTTTTCACAACCATAAAGTGATATTTACTCTGATCATAGTCAGACCAACATTGCTACGACCCGTATTCGCACCGACAC
relative integration efficiency (log2) [1]: 0.274 ± 0.2 | relative integration efficiency (log2) [2]: 0.666 ± 0.12

ACATTTGTTGATACAACCATAAAATGATAATTACAACCATAAGTTGATATTTTTCACAACCATAAGTTGATATTTTCTCTGATCATAGTCAGACCAACATTGCTACGACCCGTATTCGCACCGACAC
relative integration efficiency (log2) [1]: 0.0355 ± 0.25 | relative integration efficiency (log2) [2]: -0.201 ± 0.37

ACATTTGTTGATACAACCATAAAATGATAATTACAACCATAAGTTGATATTTTTCACAACCATATATTGATATCTCCTCTGATCATAGTCAGACCAACATTGCTACGACCCGTATTCGCACCGACAC
relative integration efficiency (log2) [1]: -0.125 ± 0.19 | relative integration efficiency (log2) [2]: 0.235 ± 0.079

ACATTTGTTGATACAACCATAAAATGATAATTACAACCATAAGTTGATATTTTTCACACCCATAAATTGATAATTACTCTGATCATAGTCAGACCAACATTGCTACGACCCGTATTCGCACCGACAC
relative integration efficiency (log2) [1]: -0.168 ± 0.11 | relative integration efficiency (log2) [2]: -0.141 ± 0.51

ACATTTGTTGATACAACCATAAAATGATAATTACAACCATAAGTTGATATTTTTCACACCCATAAATTGATATTGCCTCTGATCATAGTCAGACCAACATTGCTACGACCCGTATTCGCACCGACAC
relative integration efficiency (log2) [1]: -0.349 ± 0.2 | relative integration efficiency (log2) [2]: 0.0596 ± 0.086

ACATTTGTTGATACAACCATAAAATGATAATTACAACCATAAGTTGATATTTTTCAGTGGGTATTTAACTATAACGCTCTGATCATAGTCAGACCAACATTGCTACGACCCGTATTCGCACCGACAC
relative integration efficiency (log2) [1]: -0.515 ± 0.22 | relative integration efficiency (log2) [2]: 2.72 ± 0.21

ACATTTGTTGATACAACCATAAAATGATAATTACAACCATATATTGATATCTCTCACAACCATAAAATGATAATTACTCTGATCATAGTCAGACCAACATTGCTACGACCCGTATTCGCACCGACAC
relative integration efficiency (log2) [1]: -0.257 ± 0.18 | relative integration efficiency (log2) [2]: 0.146 ± 0.15

ACATTTGTTGATACAACCATAAAATGATAATTACAACCATATATTGATATCTCTCACAACCATAAAGTGATATTTACTCTGATCATAGTCAGACCAACATTGCTACGACCCGTATTCGCACCGACAC
relative integration efficiency (log2) [1]: -0.5 ± 0.27 | relative integration efficiency (log2) [2]: 0.0743 ± 0.02

ACATTTGTTGATACAACCATAAAATGATAATTACAACCATATATTGATATCTCTCACAACCATAAGTTGATATTTTCTCTGATCATAGTCAGACCAACATTGCTACGACCCGTATTCGCACCGACAC
relative integration efficiency (log2) [1]: -0.374 ± 0.19 | relative integration efficiency (log2) [2]: -0.141 ± 0.5
